Experimental data from patent publication US9637543B2, “HER3 antibodies and uses thereof” (THE UAB RESEARCH FOUNDATION, priority 2011, dated 2017).
Entries after “also recorded” stand apart in the source; their conditions may differ.

Key:
[1] = target: T1, HER3 (Homo sapiens, UniProt P21860); assay: Ligand-independent activation (autophosphorylation) of HER3 in cancer cells, ELISA; assay type: cell-based; design: endogenous in cells; host or cells: N87, BT474, ZR75-30, Panc 2.03
Protocol: The ELISA plate was coated with 3F8 anti-HER3 antibody (recognizing a different epitope than 1A5 and 3D4) to capture total HER3 (Total HER3, right graph for FIGS. 4A-4D). […] The total HER3 was detected by HRP-conjugated 1E8 anti-HER3 antibody. The tyrosine-phosphorylated HER3 and total HER3 levels were then measured by chemiluminescence.
The ELISA plate was coated with 3F8 anti-HER3 antibody (recognizing a different epitope than the 1A5 antibody) to capture total HER3.

[2] = system: N87 human gastric cancer xenograft; assay: N87 human gastric cancer xenograft model; assay type: in vivo; settings: in combination with lapatinib
[3] = target: T2, recombinant soluble HER3 (Homo sapiens, UniProt P21860); assay: Sandwich ELISA for epitopes (1A5 capture, HRP-3D4 detection); assay type: binding; settings: plate coated with 2 μg/ml 1A5, 200 ng/ml HRP-conjugated 3D4
T2 construct: coated with 1 μg/ml of recombinant soluble HER3
Protocol: An ELISA plate was coated with 2 μg/ml of purified 1A5 and then incubated with indicated concentrations of recombinant soluble HER3 in the presence of 200 ng/ml HRP-conjugated 3D4. The binding of 3D4 to HER3 was detected by chemiluminescence substrate. The average counts per second of triplicates are presented.
An ELISA plate was coated with 2 μg/ml of purified 1A5 and then incubated with increasing concentrations of HER3 in the presence of 200 ng/ml HRP-conjugated 3D4. The binding of 3D4 antibody to HER3 was detected by chemiluminescence.

[4] = target: T2, recombinant soluble HER3; assay: ELISA for blocking of NRG1 binding to HER3; settings: 100 ng/ml biotin-conjugated NRG1, increasing antibody concentrations
From the text: (§1) The binding of NRG1 to HER3 (vertical axis) was detected by HRP-streptavidin. […] NRG1 binding was detected by PE-streptavidin. The mean fluorescent intensities (MFI) of NRG1 bound are presented.
(§2) The binding of NRG1 to HER3 was detected by HRP-streptavidin. […] Thus, the 1A5 antibody is herein referred to as a ligand-independent antibody. […] Thus, the 3D4 antibody is herein referred to as a ligand-dependent antibody. […] NRG1 binding was detected by PE-streptavidin.

[5] = target: T1, HER3; assay: Ligand-dependent (NRG1) activation of HER3 in cancer cells, ELISA; assay type: cell-based; design: endogenous in cells; host or cells: N87, BT474, ZR75-30, Panc 2.03; settings: N87, BT474, ZR75-30, Panc 2.03 cells; antibody 24 hours, then 100 pg/ml NRG1 1 hour
From the text: (§3) The ELISA plate was coated with 3F8 anti-HER3 antibody (recognizing a different epitope than 1A5 and 3D4) to capture total HER3.
as §3
An ELISA plate was coated with 3F8 anti-HER3 antibody to capture total HER3.

[6] = system: A549 human lung cancer xenograft; assay: A549 human lung cancer xenograft model; assay type: in vivo
[7] = system: MKN28 human gastric cancer xenograft; assay: MKN28 human gastric cancer xenograft model; assay type: in vivo; settings: in combination with lapatinib
[8] = target: T1, HER3; assay: HER3 autophosphorylation in pancreatic cancer cell lines; assay type: cell-based; design: endogenous in cells; host or cells: N87, BT474, ZR75-30, Panc 2.03, A549 and a panel of human cancer cell lines; settings: single agents
[9] = target: T3, HER3 (extracellular domain) (Homo sapiens, UniProt P21860); assay: ELISA binding specificity on recombinant soluble EGFR, HER2, HER3; settings: plate coated with 1 μg/ml recombinant soluble EGFR, HER2 or HER3 extracellular domain
T3 construct: recombinant soluble EGFR, HER2, or the extracellular domain of HER3
Protocol: (§4) The average OD values of triplicates are presented. The values for egFR are superimposed on the values for HER2. […] EGFR, HER2 or HER3-transfected SP 2/0 cells were stained with 1 μg/ml of purified antibody, followed by PE-goat anti-mouse IgG.
(§5) An ELISA plate was coated with 1 μg/ml of recombinant soluble EGFR, HER2, or the extracellular domain of HER3.

[10] = target: T4, HER3-transfected SP 2/0 cells (Homo sapiens, UniProt P21860); assay: Flow cytometry binding specificity on transfected SP 2/0 cells; settings: EGFR, HER2 or HER3 transfected SP2/0 cells, 1 μg/ml purified antibody
T4 construct: expressed in transfected cells; host or cells: SP 2/0 cells
Protocol: as §4, §5

[11] = target: T4, HER3-transfected SP 2/0 cells; assay: Flow cytometry for blocking of NRG1 binding to HER3; settings: 100 ng/ml biotin-conjugated NRG1, increasing antibody concentrations
From the text: as §1, §2

[12] = system: DR5-apoptosis resistant human breast cancer ZR75-1 cell line; assay: Functional screen for apoptosis of DR5-resistant cells; assay type: cell-based; settings: in the presence of an agonistic DR5-antibody selected from TRA-8 or CTB006
From the text: In a functional screen of a hybridoma library made against the DR5-apoptosis resistant human breast cancer ZR75-1 cell line, the 1A5 antibody was identified. […] The target of the 1A5 antibody was identified to be HER3 by immunoprecipitation with the 1A5 antibody and subsequent mass spectrometry analysis.

[13] = target: T5, EGFR (Homo sapiens, UniProt P00533); assay: EGFR autophosphorylation in pancreatic cancer cell lines; assay type: cell-based; design: endogenous in cells; host or cells: panel of eight pancreatic cancer cell lines
[14] = target: T1, HER3; assay: HER3 tyrosine phosphorylation ELISA, antibodies with or without tyrosine kinase inhibitor; assay type: cell-based; design: endogenous in cells; host or cells: N87; tyrosine phosphorylation of HER3: dose or concentration left out as unconfirmed; settings: 24 hours; for tyrosine phosphorylation levels of HER3: 20 μg/ml antibody
[15] = target: T6, HER2 (Homo sapiens, UniProt P04626); assay: HER2 autophosphorylation in pancreatic cancer cell lines; assay type: cell-based; design: endogenous in cells
[16] = target: T6, HER2; assay: HER2 tyrosine phosphorylation ELISA, antibodies with or without lapatinib; assay type: cell-based; design: endogenous in cells; host or cells: N87 gastric cancer cells; ZR75-30 breast cancer cells; settings: 24 hours, without lapatinib
[17] = target: T5, EGFR; assay: EGFR tyrosine phosphorylation ELISA, antibodies with or without tyrosine kinase inhibitor; settings: 24 hours
[18] = system: HT29 human colon cancer xenograft; assay: HT29 human colon cancer xenograft model; assay type: in vivo

T1 sequence (P21860 20-1342): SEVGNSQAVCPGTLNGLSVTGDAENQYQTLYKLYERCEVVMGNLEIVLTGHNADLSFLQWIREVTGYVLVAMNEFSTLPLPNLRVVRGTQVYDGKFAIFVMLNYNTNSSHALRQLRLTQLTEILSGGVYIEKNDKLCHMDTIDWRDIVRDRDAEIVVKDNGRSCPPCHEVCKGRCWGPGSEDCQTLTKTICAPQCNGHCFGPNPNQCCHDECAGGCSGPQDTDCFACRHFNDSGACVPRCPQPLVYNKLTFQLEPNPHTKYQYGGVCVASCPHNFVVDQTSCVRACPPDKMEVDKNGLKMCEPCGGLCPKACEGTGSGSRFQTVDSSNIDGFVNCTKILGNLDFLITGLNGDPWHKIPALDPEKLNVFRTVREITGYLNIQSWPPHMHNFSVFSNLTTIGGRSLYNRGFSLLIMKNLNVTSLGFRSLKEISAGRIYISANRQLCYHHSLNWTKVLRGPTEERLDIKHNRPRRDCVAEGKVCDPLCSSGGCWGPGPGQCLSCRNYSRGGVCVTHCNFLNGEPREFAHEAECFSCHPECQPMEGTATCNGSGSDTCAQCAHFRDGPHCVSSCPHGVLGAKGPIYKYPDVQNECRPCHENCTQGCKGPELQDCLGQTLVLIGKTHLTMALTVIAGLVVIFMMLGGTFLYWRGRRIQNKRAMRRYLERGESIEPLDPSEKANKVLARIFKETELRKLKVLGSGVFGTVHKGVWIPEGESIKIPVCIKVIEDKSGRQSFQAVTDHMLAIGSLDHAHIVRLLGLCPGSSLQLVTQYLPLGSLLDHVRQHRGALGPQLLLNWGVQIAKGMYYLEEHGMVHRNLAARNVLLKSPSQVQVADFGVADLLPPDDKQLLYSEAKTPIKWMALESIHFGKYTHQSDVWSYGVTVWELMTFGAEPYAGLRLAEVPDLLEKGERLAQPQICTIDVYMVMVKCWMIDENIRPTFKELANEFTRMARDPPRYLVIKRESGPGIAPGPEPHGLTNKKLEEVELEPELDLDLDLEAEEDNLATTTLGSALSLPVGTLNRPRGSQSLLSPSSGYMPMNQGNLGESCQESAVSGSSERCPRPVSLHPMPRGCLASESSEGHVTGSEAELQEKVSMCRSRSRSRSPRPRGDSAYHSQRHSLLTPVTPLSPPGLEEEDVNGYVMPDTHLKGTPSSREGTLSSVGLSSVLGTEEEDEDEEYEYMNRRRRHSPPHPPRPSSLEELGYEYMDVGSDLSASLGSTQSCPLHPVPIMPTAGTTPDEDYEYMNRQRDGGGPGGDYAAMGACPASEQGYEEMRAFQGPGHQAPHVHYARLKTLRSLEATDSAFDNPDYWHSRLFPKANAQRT
T4 sequence (P21860 20-1342): as above
T2 sequence (P21860 20-643 limits assumed): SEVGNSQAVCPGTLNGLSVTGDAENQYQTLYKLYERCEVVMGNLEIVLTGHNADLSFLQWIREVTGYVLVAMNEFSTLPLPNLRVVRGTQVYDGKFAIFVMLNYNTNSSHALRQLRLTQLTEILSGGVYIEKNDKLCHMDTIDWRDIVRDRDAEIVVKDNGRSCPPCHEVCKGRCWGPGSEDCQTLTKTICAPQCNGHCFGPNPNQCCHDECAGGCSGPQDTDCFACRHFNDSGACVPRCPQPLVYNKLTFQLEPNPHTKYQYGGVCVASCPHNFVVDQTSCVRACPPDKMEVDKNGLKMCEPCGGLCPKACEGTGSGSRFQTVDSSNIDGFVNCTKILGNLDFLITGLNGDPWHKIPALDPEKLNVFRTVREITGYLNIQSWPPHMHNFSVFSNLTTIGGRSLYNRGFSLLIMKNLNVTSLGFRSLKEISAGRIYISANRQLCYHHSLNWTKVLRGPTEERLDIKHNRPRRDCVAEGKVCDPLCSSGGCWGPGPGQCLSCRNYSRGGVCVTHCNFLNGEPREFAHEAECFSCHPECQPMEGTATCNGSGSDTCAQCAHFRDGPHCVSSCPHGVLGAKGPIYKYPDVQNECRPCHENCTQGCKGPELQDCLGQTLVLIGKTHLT
T3 sequence (P21860 20-643 limits assumed): as above

B1: 1A5: ligand-independent HER3 antibody; heavy chain variable region SEQ ID NO:1, light chain variable region SEQ ID NO:2 (antibody, V domains shown)
VH: MEWIWIFLFIFSGTAGVHSQVQLQQSGAELARPGASVKLSCKASGYTFTDNYINWMKQRPGQGLEWIGEIYPGSGNTYYNEKFKGKATLTADKSSSTAYMQLSSLTSEESAVYFCARSPNLRLYYFDYWGQGTTLTVSS
VL: MVSTSQLLGLLLFWTSASRCDIVMTQSPATLSVTPGDRVSLSCRASQSINDYLYWYQQKLHESPRLLIKFASHSISGIPSRFSGSGSGSDFTLSINSVEPEDVGVYYCQNGHSFPLTFGAGTKLELK
inhibition of ligand-independent activation of HER3 in a panel of human cancer cell lines ([1]; 20 μg/ml 1A5, 24 hours): inhibition of ligand-independent activation of HER3 in a panel of human cancer cells lines | inhibition of autophosphorylation of HER3 ([1]; N87, BT474, ZR75-30, Panc 2.03 cells, increasing concentrations, 24 hours): capable of inhibiting autophosphorylation of HER3 to a greater extent than the ligand-dependent 3D4 antibody; also recorded: dose-dependent inhibition of ligand-independent activation (autophosphorylation) of HER3 | tumor volume [2]: synergistically reduces tumor volume | epitopes of HER3 bound [3]: bind different epitopes of HER3; also recorded: recognize different epitopes on HER3 | blocking of NRG1 binding to HER3 (ELISA) [4]: failed in block NRG1 binding to HER3; also recorded: does not block ligand binding to HER3 | inhibition of ligand-dependent activation of HER3 [5]: capable of inhibiting ligand-dependent activation of HER3 to a lesser extent than the ligand-dependent 3D4 antibody | tumor volume ([6]; antibodies without Erbitux): reduced tumor volume | tumor volume ([6]; in combination with Erbitux): reduced tumor volume more than administration of Erbitux alone | tumor volume [7]: synergistically reduces tumor volume | autophosphorylation of HER3 [8]: inhibited autophosphorylation of HER3 in all HER3 positive cell lines except for Panc1; also recorded: inhibited autophosphorylation of HER3 in all HER3 positive cell lines, except Panc 1 | binding specificity by ELISA [9]: specifically bind HER3; also recorded: specific binding | binding specificity by flow cytometry [10]: specifically bind HER3 | blocking of NRG1 binding to HER3 (flow cytometry) [11]: failed to block NRG1 binding to HER3; also recorded: does not block ligand binding to HER3 | apoptosis of DR5-resistant ZR75-1 cells [12]: apoptosis of the DR5-resistant ZR75-1 cells was observed | autophosphorylation of EGFR, 1A5 with erlotinib ([13]; in combination with erlotinib): capable of enhancing the inhibitory activity of erlotinib; also recorded: able to enhance the inhibitory activity of erlotinib | autophosphorylation of EGFR, 1A5 with lapatinib ([13]; in combination with lapatinib): not able to enhance the activity of lapatinib | autophosphorylation of EGFR ([13]; single agents): partially inhibited EGFR autophosphorylation in a HER3-dependent fashion | tyrosine phosphorylation levels of HER3, effect of adding Erlotinib ([14]; A549 cells, 20 μg/ml antibody with 100 nM Erlotinib): enhanced | tyrosine phosphorylation levels of HER3 ([14]; A549 cells, without Erlotinib): reduced the tyrosine-phosphorylation levels of HER3 | tyrosine phosphorylation of HER3 ([14]; N87 cells, without lapatinib): reduced the tyrosine phosphorylation of HER3 | tyrosine phosphorylation of HER3, effect of adding lapatinib ([14]; N87 cells, with 100 nM lapatinib): enhanced | tyrosine phosphorylation levels of HER3, effect of adding lapatinib ([14]; ZR75-30 cells, 20 μg/ml antibody with 100 nM lapatinib): enhanced | tyrosine phosphorylation levels of HER3 ([14]; ZR75-30 cells, without lapatinib): reduced the tyrosine phosphorylation levels of HER3 | autophosphorylation of HER2, 1A5 with lapatinib ([15]; in combination with lapatinib): significantly reduced levels of HER2 autophosphorylation; also recorded: reduced the levels of HER2 autophosphorylation to a greater extent than the 1A5 antibody or lapatinib alone | autophosphorylation of HER2 ([15]; single agents): partially inhibited autophosphorylation of HER2 | tyrosine phosphorylation level of HER2 ([16]; N87 cells): did not affect the level of tyrosine phosphorylation for EGFR or HER2 | tyrosine phosphorylation levels of HER2 ([16]; ZR75-30 cells, 20 μg/ml antibody): did not affect tyrosine phosphorylation levels of HER2 | tyrosine phosphorylation levels of EGFR ([17]; A549 cells, 20 μg/ml antibody, without Erlotinib): did not affect tyrosine phosphorylation levels of EGFR | tyrosine phosphorylation level of EGFR ([17]; N87 cells, 20 mg/ml antibody, without lapatinib): did not affect the level of tyrosine phosphorylation for EGFR or HER2 | tumor volume ([18]; antibodies or lapatinib alone): had the greatest tumor volume reducing effect; also recorded: reduces tumor volume | tumor volume ([18]; in combination with lapatinib): synergistically reduces tumor volume
